Measured values from patent US6299877.

Assays:
[1] = target: IFN-αR1 (IFNAR1), type I interferon receptor subunit on cells (human) (UniProt P17181)
[2] = target: IFN-αR2 (IFNAR2), type I interferon receptor subunit on cells (human) (UniProt P48551)

growth inhibition of Daudi cells, IC50 [1]: 100 µM
growth inhibition of Daudi cells, IC50 [2]: 100 µM
Substance: Histidine (His)-tagged IFN-ε (IFN-ε^His), recombinant, expressed in E. coli (ligand)
